Test results reported in the supplement of paper PMC9170038.

System: K4 kissing-loop RNA reporter
Test: apparent KD of K4 kissing-loop reporter; higher = weaker reporter binding
Details: Eterna round: R107
Protocol: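 RNA-MaP round R107: designed RNA switches with theophylline, tryptophan, arginine or FMN aptamers are transcribed on-chip within common flanks. They are titrated with a labelled K4 kissing-loop RNA reporter in RNA-MaP buffer (100 mM Tris pH 7.5, 80 mM KCl, 4 mM MgCl2), without ligand or with the indicated ligand. Median apparent KD per design.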

[1] = input ligand: theophylline 20 uM
[2] = input ligand: tryptophan 2.4 mM
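Also: bound reporter read as fluorescence of individual clusters on recovered sequencing chips by microscopy, with normalized cluster intensities fitted with a binding model.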

In the case of “AGAGGUCCCAGUGAUGUUGGUGCGUUUGGUCGAGGACCGGUACGGCCGCCACUCGUUCAUAGUAAGCCCUCUUUAGUGUUUCUAA [theeternabot_sameState_KL_Trp_A_9]”, the “apparent KD of K4 kissing-loop reporter” value (input ligand: FMN 200 uM) was 544 nM, the “apparent KD of K4 kissing-loop reporter” value (input ligand: arginine 13.2 mM) was 336 nM and the “apparent KD of K4 kissing-loop reporter” value (input ligand: none) was 428 nM. The “apparent KD of K4 kissing-loop reporter” value [1] was 551 nM and the “apparent KD of K4 kissing-loop reporter” value [2] was 186 nM.

“AGAGUACGAAAGUACUCCUCUACACACUGACGAGGACCGGUACGGCCGCCACUCGAGUUGAGUGAUGUUCGACAGUGUGUAGAGA [Omei KL Tryp A SS C v1]” was tested, and the “apparent KD of K4 kissing-loop reporter” value (input ligand: FMN 200 uM) was 120 nM, the “apparent KD of K4 kissing-loop reporter” value (input ligand: arginine 13.2 mM) was 22.3 nM and the “apparent KD of K4 kissing-loop reporter” value (input ligand: none) was 25.6 nM. For the same sequence, the “apparent KD of K4 kissing-loop reporter” value [1] was 163 nM and the “apparent KD of K4 kissing-loop reporter” value [2] was 783 nM.

In the case of “AGAGUGAUGUUUUUUUGAAGUGAGUAAAGUCGAGGACCGGUACGGCCGCCACUCGAGUGAUGUUAGUGAUGUUGAUGUAGUGAUG [xxzmullin]”, the “apparent KD of K4 kissing-loop reporter” value (input ligand: FMN 200 uM) was 110 nM, the “apparent KD of K4 kissing-loop reporter” value (input ligand: arginine 13.2 mM) was 69 nM and the “apparent KD of K4 kissing-loop reporter” value (input ligand: none) was 90.9 nM. The “apparent KD of K4 kissing-loop reporter” value [1] was 105 nM and the “apparent KD of K4 kissing-loop reporter” value [2] was 75.4 nM.

For “AGAGUUAUGCGAGGAUAUGCGGUUAGUACUCAAAGAGUACUAACGCAGAGUGAUGUUCUGUGAAACACAGAAGGUGCAUAACUCA [Omei KL FMN B SS B v2]”, the “apparent KD of K4 kissing-loop reporter” value (input ligand: FMN 200 uM) was 950 nM, the “apparent KD of K4 kissing-loop reporter” value (input ligand: arginine 13.2 mM) was 116 nM and the “apparent KD of K4 kissing-loop reporter” value (input ligand: none) was 249 nM. The “apparent KD of K4 kissing-loop reporter” value [1] was 205 nM and the “apparent KD of K4 kissing-loop reporter” value [2] was 148 nM.

In the case of “AGAGUUAUGCGAGGAUAUGCGGUUAGUACUCAAAGAGUACUAACGCAGAGUGAUGUUCUGUGAAACGCAGAAGGUGCAUAACUCA [Omei KL FMN B SS B v3]”, the “apparent KD of K4 kissing-loop reporter” value (input ligand: FMN 200 uM) was 153 nM, the “apparent KD of K4 kissing-loop reporter” value (input ligand: arginine 13.2 mM) was 216 nM and the “apparent KD of K4 kissing-loop reporter” value (input ligand: none) was 280 nM. The “apparent KD of K4 kissing-loop reporter” value [1] was 238 nM and the “apparent KD of K4 kissing-loop reporter” value [2] was 229 nM.

With “AGAUCUGUAACAGAUACCAGAGGACGAUGAUCGGAUAGUGAUGUUAUCUAUCAGUCGUCGCUCCCUUGGCAGCUGUUACAGAUCA [Omei KL Theo B SS B v2]” the “apparent KD of K4 kissing-loop reporter” value (input ligand: FMN 200 uM) was 839 nM, the “apparent KD of K4 kissing-loop reporter” value (input ligand: arginine 13.2 mM) was 450 nM and the “apparent KD of K4 kissing-loop reporter” value (input ligand: none) was 776 nM. The “apparent KD of K4 kissing-loop reporter” value [1] was 552 nM and the “apparent KD of K4 kissing-loop reporter” value [2] was 662 nM.

For “AGAUGACACGGAGGAUAUCCUAAUAUGGGUGAUGUUAGCGAUGUUGAAGGUGUAGUGAUGUUAUGCGGAGAAGGCCGUGUUGUUU [BDazzled - #22 - Exc. FMN B]”, the “apparent KD of K4 kissing-loop reporter” value (input ligand: FMN 200 uM) was 103 nM, the “apparent KD of K4 kissing-loop reporter” value (input ligand: arginine 13.2 mM) was 85.6 nM and the “apparent KD of K4 kissing-loop reporter” value (input ligand: none) was 155 nM. For the same sequence, the “apparent KD of K4 kissing-loop reporter” value [1] was 102 nM and the “apparent KD of K4 kissing-loop reporter” value [2] was 96.1 nM.

For “AGAUUCGACACGGCCGCCACUUCCAGUGGCUGGUGUCAUGGUGCACGUGAGUGAUGUUUAUGUGGAAGGACCGGGUGUUGAGUCU [KL-XTryp-B2 #analogue]”, the “apparent KD of K4 kissing-loop reporter” value (input ligand: FMN 200 uM) was 652 nM, the “apparent KD of K4 kissing-loop reporter” value (input ligand: arginine 13.2 mM) was 472 nM and the “apparent KD of K4 kissing-loop reporter” value (input ligand: none) was 670 nM. For the same sequence, the “apparent KD of K4 kissing-loop reporter” value [1] was 504 nM and the “apparent KD of K4 kissing-loop reporter” value [2] was 1250 nM.

“AGAUUCGACACGGCCGCCACUUGUGGUGGAUUAUCCUAUGUAAGACAUGAGUGAUGUUCAUGUACAAGGACCGGGUGUUGAGUCU [KL-XTryp-B4 #analogue]” was tested, and the “apparent KD of K4 kissing-loop reporter” value (input ligand: FMN 200 uM) was 215 nM, the “apparent KD of K4 kissing-loop reporter” value (input ligand: arginine 13.2 mM) was 177 nM and the “apparent KD of K4 kissing-loop reporter” value (input ligand: none) was 199 nM. The “apparent KD of K4 kissing-loop reporter” value [1] was 193 nM and the “apparent KD of K4 kissing-loop reporter” value [2] was 425 nM.

In the case of “AGCAGUGAUGUUGCAUUUAUAAUGACCGAUACCAGUAUCGAUAGAUACCCUUGGCAGCGGAUUUCCGCAACGACUAGGAAACUAG [Ex Theophylline A K4 14]”, the “apparent KD of K4 kissing-loop reporter” value (input ligand: FMN 200 uM) was 305 nM, the “apparent KD of K4 kissing-loop reporter” value (input ligand: arginine 13.2 mM) was 359 nM and the “apparent KD of K4 kissing-loop reporter” value (input ligand: none) was 355 nM. For the same sequence, the “apparent KD of K4 kissing-loop reporter” value [1] was 508 nM and the “apparent KD of K4 kissing-loop reporter” value [2] was 283 nM.

In the case of “AGCCGAAAGGCGAGUGCUGUCACUCCGGAAGGAGCGCCCAAAAGGGCAGGUAGGUCGCCGGAGUGAUGUUCCGGUGCAGCACUCA [Omei KL Arginine A Exc B v3]”, the “apparent KD of K4 kissing-loop reporter” value (input ligand: FMN 200 uM) was 572 nM, the “apparent KD of K4 kissing-loop reporter” value (input ligand: arginine 13.2 mM) was 497 nM and the “apparent KD of K4 kissing-loop reporter” value (input ligand: none) was 784 nM. For the same sequence, the “apparent KD of K4 kissing-loop reporter” value [1] was 533 nM and the “apparent KD of K4 kissing-loop reporter” value [2] was 482 nM.

In the case of “AGGACGUGAGAAGAUACCAGAGAAUAAUGCAGUGAUGUUGCUAAAUAUAAUUUAAUAUAACUCCCUUGGCAGCUUAAGUUAGUCU [Theophylline b same state]”, the “apparent KD of K4 kissing-loop reporter” value (input ligand: FMN 200 uM) was 75.2 nM, the “apparent KD of K4 kissing-loop reporter” value (input ligand: arginine 13.2 mM) was 120 nM and the “apparent KD of K4 kissing-loop reporter” value (input ligand: none) was 98.7 nM. The “apparent KD of K4 kissing-loop reporter” value [1] was 115 nM and the “apparent KD of K4 kissing-loop reporter” value [2] was 73.9 nM.

“AGGCAAUAUGCGGCCGCCACUUUCAGUGAUGUUGAGACGCGGAAUGUUGUAUAAUAUCGCCACGAAAGGACCGGGCAAGGGAAAG [theeternabot_exclusion_KL_Trp_B_5]” was tested, and the “apparent KD of K4 kissing-loop reporter” value (input ligand: FMN 200 uM) was 691 nM, the “apparent KD of K4 kissing-loop reporter” value (input ligand: arginine 13.2 mM) was 434 nM and the “apparent KD of K4 kissing-loop reporter” value (input ligand: none) was 542 nM. The “apparent KD of K4 kissing-loop reporter” value [1] was 423 nM and the “apparent KD of K4 kissing-loop reporter” value [2] was 355 nM.

For “AGGCACGAGCAAGGAUAUCGAGUAGAGUGAUGUUCUGCCUGGGUUGGCGCGCAAGGGCCUUCCCAGCGAGAAGGUGCUCGUGCCU [#2 Same State - FMN A Attempt #11 (HarryS)]”, the “apparent KD of K4 kissing-loop reporter” value (input ligand: FMN 200 uM) was 221 nM, the “apparent KD of K4 kissing-loop reporter” value (input ligand: arginine 13.2 mM) was 840 nM and the “apparent KD of K4 kissing-loop reporter” value (input ligand: none) was 916 nM. For the same sequence, the “apparent KD of K4 kissing-loop reporter” value [1] was 682 nM and the “apparent KD of K4 kissing-loop reporter” value [2] was 634 nM.

For “AGGCCACACAGCGAGUGAUGUUUGCGUUAUCGAGGACCGGUACGGCCGCCACUCGGCCUUUAGCGCCUUACCAAUUAGGUGUUGC [theeternabot_sameState_KL_Trp_A_46]”, the “apparent KD of K4 kissing-loop reporter” value (input ligand: FMN 200 uM) was 453 nM, the “apparent KD of K4 kissing-loop reporter” value (input ligand: arginine 13.2 mM) was 430 nM and the “apparent KD of K4 kissing-loop reporter” value (input ligand: none) was 731 nM. For the same sequence, the “apparent KD of K4 kissing-loop reporter” value [1] was 556 nM and the “apparent KD of K4 kissing-loop reporter” value [2] was 647 nM.

“AGGCCCGGCCGAAAGGCCGGGCCAAGAGAUACCAGCAGCGAAAGCUGCCCUUGGCAGCUCACUUAGUGAUGUUAAGAAUAGAACA [SS Theo A Tesla 1]” was tested, and the “apparent KD of K4 kissing-loop reporter” value (input ligand: FMN 200 uM) was 538 nM, the “apparent KD of K4 kissing-loop reporter” value (input ligand: arginine 13.2 mM) was 464 nM and the “apparent KD of K4 kissing-loop reporter” value (input ligand: none) was 375 nM. The “apparent KD of K4 kissing-loop reporter” value [1] was 485 nM and the “apparent KD of K4 kissing-loop reporter” value [2] was 390 nM.

In the case of “AGGGAUGAUGGAUAAAUAAACAAAAGGGAUACCAGUCAAAUAAUAGGCCCUUGGCAGCUUUAGAUCAGUGAUGUUGAAGAUAUUG [Theophylline A Same State; Euphoria Solution]”, the “apparent KD of K4 kissing-loop reporter” value (input ligand: FMN 200 uM) was 84.1 nM, the “apparent KD of K4 kissing-loop reporter” value (input ligand: arginine 13.2 mM) was 127 nM and the “apparent KD of K4 kissing-loop reporter” value (input ligand: none) was 93 nM. For the same sequence, the “apparent KD of K4 kissing-loop reporter” value [1] was 159 nM and the “apparent KD of K4 kissing-loop reporter” value [2] was 78.5 nM.

In the case of “AGGGAUGAUGGAUAAAUAAACAAAGGAGAUACCAGUCAAAUAAUAGGCCCUUGGCAGCUUCAGAUCAGUGAUGUUGAAGAUAUUG [#09 K4 Theophylline A Same State]”, the “apparent KD of K4 kissing-loop reporter” value (input ligand: FMN 200 uM) was 109 nM, the “apparent KD of K4 kissing-loop reporter” value (input ligand: arginine 13.2 mM) was 67.1 nM and the “apparent KD of K4 kissing-loop reporter” value (input ligand: none) was 139 nM. For the same sequence, the “apparent KD of K4 kissing-loop reporter” value [1] was 148 nM and the “apparent KD of K4 kissing-loop reporter” value [2] was 110 nM.

In the case of “AGGGAUGUUAAAGGAUAUAGAAAGUGAUGUUAGAAAGUGAGUGAUGUUGAUGUAAGUGAUGUUAUGUUAGAAGGUUAACAAAACG [ab]”, the “apparent KD of K4 kissing-loop reporter” value (input ligand: FMN 200 uM) was 229 nM, the “apparent KD of K4 kissing-loop reporter” value (input ligand: arginine 13.2 mM) was 120 nM and the “apparent KD of K4 kissing-loop reporter” value (input ligand: none) was 200 nM. The “apparent KD of K4 kissing-loop reporter” value [1] was 215 nM and the “apparent KD of K4 kissing-loop reporter” value [2] was 170 nM.

“AGGGUAAGGCGUUAACAUGACACCUGGGAAGGAGCGCGGUACACCGCAGGUAGGUCGCCCAGUGAUGUUGGGCGUAAGUAUGAGU [KL-XArg-A22]” was tested, and the “apparent KD of K4 kissing-loop reporter” value (input ligand: FMN 200 uM) was 137 nM, the “apparent KD of K4 kissing-loop reporter” value (input ligand: arginine 13.2 mM) was 179 nM and the “apparent KD of K4 kissing-loop reporter” value (input ligand: none) was 185 nM. The “apparent KD of K4 kissing-loop reporter” value [1] was 180 nM and the “apparent KD of K4 kissing-loop reporter” value [2] was 137 nM.

With “AGGUCACCACUACAGUGAUGUUGUAGGGAGCAGGAUAUGCAGAAAUGCAGAAGGGCUCGCUCCCGGUGACCGAAUGAAACAUUCA [Omei KL FMN A SS A v6]” the “apparent KD of K4 kissing-loop reporter” value (input ligand: FMN 200 uM) was 432 nM, the “apparent KD of K4 kissing-loop reporter” value (input ligand: arginine 13.2 mM) was 258 nM and the “apparent KD of K4 kissing-loop reporter” value (input ligand: none) was 318 nM. The “apparent KD of K4 kissing-loop reporter” value [1] was 289 nM and the “apparent KD of K4 kissing-loop reporter” value [2] was 282 nM.
